Measured values from CN114805589A.

Legend:
山羊IgG (山羊 (goat)) [1] = experiment: indirect ELISA, IgG coated at 1 ug/mL, HRP goat anti-mouse IgG detection, OD450; settings: scale: reciprocal dilution
绵羊IgG (绵羊 (sheep)) [2] = experiment: as above; settings: scale: reciprocal dilution
牛IgG (牛 (bovine)) [3] = experiment: as above; settings: scale: reciprocal dilution
山羊IgG (山羊 (goat)) [4] = experiment: direct magnetic-particle chemiluminescence, IgG on magnetic particles, HRP-labelled 4C-1 at 1:4000
绵羊IgG (绵羊 (sheep)) [5] = experiment: as above
牛IgG (牛 (bovine)) [6] = experiment: as above

效价 (titer) (山羊IgG (山羊 (goat)) [1]): > 256000
效价 (titer) (绵羊IgG (绵羊 (sheep)) [2]): > 256000
效价 (titer) (牛IgG (牛 (bovine)) [3]): > 256000
发光值 (luminescence value) (山羊IgG (山羊 (goat)) [4]): > 100000 发光值
发光值 (luminescence value) (绵羊IgG (绵羊 (sheep)) [5]): > 100000 发光值
发光值 (luminescence value) (牛IgG (牛 (bovine)) [6]): > 100000 发光值
B1: 鼠单克隆抗体 二抗4C-1 (antibody, part only; not given: Light chain variable domain, V domains shown, part only)
VH: QVQLKQSGPELVKPGASVKMSCKASGYTFTSYVIHWVKQKPGQGLEWIGYINPYNDNTEYNEKFKGKATLTSDKSSSTAYMELSSLTSEDSAVYYCARREGGYYVFTYWGQGTLVTVSA
